Experiments:
[1] = target: T1, metallo-beta-lactamase (beta-lactamase II, 5/B/6) (Bacillus cereus 5/B/6, UniProt P14488 SEQ:2-228); experiment: inhibition; 4.3 mM cephalosporin C, 50 mM MOPS pH 7.0, no added Zn; settings: tags: expressed in E. coli TAP56 from pRE2/bla
T1 sequence: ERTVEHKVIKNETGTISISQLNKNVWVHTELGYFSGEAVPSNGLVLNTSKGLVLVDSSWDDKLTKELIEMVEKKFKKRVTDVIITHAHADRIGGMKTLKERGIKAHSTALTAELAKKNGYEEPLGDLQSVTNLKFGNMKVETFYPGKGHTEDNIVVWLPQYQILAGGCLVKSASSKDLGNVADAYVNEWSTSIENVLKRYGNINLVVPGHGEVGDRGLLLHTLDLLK

[2] = target: T1, metallo-beta-lactamase (beta-lactamase …); experiment: inhibition; noncompetitive; Ki' (enzyme-substrate-inhibitor complex) 15 nM; cephalosporin C substrate, 50 mM MOPS pH 7.0, 30 C; settings: tags: expressed in E. coli TAP56 from pRE2/bla

UGGCUGCAGGGUCUGGCCCCCCGUUUGGUG (ssRNA) [30-mer RNA]
IC50 [1]: 11 nM
Ki [2]: 2 nM

From patent publication US20080119432, “Inhibition Of Metallo-Beta-Lactamase By Rna” (published 2008)
